Numbering of substitutions follows the chain as printed. Each block holds one binder with its values, some of them ahead of it.
Assays:
cynomolgus monkey IL-6 [1] = target: T1, cynomolgus monkey IL-6 (cynomolgus monkey, UniProt P79341 28-212, limits assumed); assay: SPR; periplasmic fraction
T1 construct: also called HIS-cyIL-6

[2] = target: T2, eukaryotically produced human IL-6 (human, UniProt P05231 30-212); assay: SPR; periplasmic fraction
T2 construct: also called eukIL-6; Euk IL-6

[3] = target: T3, bacterially produced human IL-6 (human, UniProt P05231 30-212); assay: SPR; periplasmic fraction
T3 construct: also called bactIL-6; prokaryotic IL-6

cynomolgus monkey IL-6 [4] = target: T1, cynomolgus monkey IL-6; assay: SPR; periplasmic fraction; against parental 29B11
[5] = target: T2, eukaryotically produced human IL-6; assay: SPR; periplasmic fraction; against parental 29B11
[6] = target: T3, bacterially produced human IL-6; assay: SPR; periplasmic fraction; against parental 29B11
human IL-6 = human IL-6 (human, UniProt P05231 30-212); assay: cell-based or functional assay
[7] = target: T4, human IL-6 (as added in the B9 and 7TD1 bioassays) (human, UniProt P05231 30-212); assay: cell-based or functional assay
[8] = target: T4, human IL-6 (as added in the B9 and 7TD1 …); assay: cell-based or functional assay; remark: listed apart in the source
[9] = target: T4, human IL-6 (as added in the B9 and 7TD1 …); assay: cell-based or functional assay; remark: listed apart in the source

Ka (cynomolgus monkey IL-6 [1]): 1.25e+09 M⁻¹ | Kd (cynomolgus monkey IL-6 [1]): 801 pM | koff (cynomolgus monkey IL-6 [1]): 0.000381 s⁻¹ | kon (cynomolgus monkey IL-6 [1]): 475000 M⁻¹ s⁻¹ | Ka [2]: 5.55e+09 M⁻¹ | Kd [2]: 180 pM | koff [2]: 7.93e-05 s⁻¹ | kon [2]: 440000 M⁻¹ s⁻¹ | Ka [3]: 7.6e+09 M⁻¹ | Kd [3]: 132 pM | koff [3]: 7.38e-05 s⁻¹ | kon [3]: 561000 M⁻¹ s⁻¹ | fold improvement KD (cynomolgus monkey IL-6 [4]): 8.25 fold | fold improvement ka (cynomolgus monkey IL-6 [4]): 4.2 fold | fold improvement kd (cynomolgus monkey IL-6 [4]): 1.96 fold | fold improvement KD [5]: 3.03 fold | fold improvement ka [5]: 2.35 fold | fold improvement kd [5]: 1.29 fold | fold improvement KD [6]: 3.97 fold | fold improvement ka [6]: 2.24 fold | fold improvement kd [6]: 1.78 fold
B1: Fab 55C1 (Fab, V domains shown)
VH: EVQLVESGGGLVQPGGSLRLSCAASGFTFSSYAMSWVRQAPGKGLEWVSRISSGGISTYYADSVKGRFTISRDNAKNTLYLQMNSLKPEDTAVYYCVRYAWGVQWAFDFWGQGTQVTVSS
VL: LNFMLTQPPSVSGSPGKTVTISCAGTSSDVGYGNYVSWYQQLPGTAPKLLIYNVNKRASGITDRFSGSKSGNTASLTISGLQSEDEADYYCASYRTGDNAAFGGGTKLTVLG
notes: VL-shuffled Fab of 29B11, periplasmic fraction; also called 55C1a

Ka (cynomolgus monkey IL-6 [1]): 6.48e+08 M⁻¹ | Kd (cynomolgus monkey IL-6 [1]): 1540 pM | koff (cynomolgus monkey IL-6 [1]): 0.00131 s⁻¹ | kon (cynomolgus monkey IL-6 [1]): 851000 M⁻¹ s⁻¹ | Ka [2]: 3.54e+09 M⁻¹ | Kd [2]: 282 pM | koff [2]: 0.00024 s⁻¹ | kon [2]: 849000 M⁻¹ s⁻¹ | Ka [3]: 3.56e+09 M⁻¹ | Kd [3]: 281 pM | koff [3]: 0.000315 s⁻¹ | kon [3]: 1.12e+06 M⁻¹ s⁻¹ | fold improvement KD (cynomolgus monkey IL-6 [4]): 4.29 fold | fold improvement ka (cynomolgus monkey IL-6 [4]): 7.53 fold | fold improvement kd (cynomolgus monkey IL-6 [4]): 0.57 fold | fold improvement KD [5]: 1.94 fold | fold improvement ka [5]: 4.54 fold | fold improvement kd [5]: 0.43 fold | fold improvement KD [6]: 1.86 fold | fold improvement ka [6]: 4.46 fold | fold improvement kd [6]: 0.42 fold
B2: Fab 47C2 (Fab, V domains shown)
VH: B1 VH
VL: LSYDLTQPPSVSGSPGKTVTISCAGTSSDVGYGNYVSWYQQLPGMAPKILIYDVNKRASGIADRFSGSKSGNTASLTISGLQSEDEADYYCASYRRGETIVFGGGTHLTVLG
notes: VL-shuffled Fab of 29B11, periplasmic fraction; also called 47C2 (R4)

Ka (cynomolgus monkey IL-6 [1]): 1.89e+09 M⁻¹ | Kd (cynomolgus monkey IL-6 [1]): 529 pM | koff (cynomolgus monkey IL-6 [1]): 0.000615 s⁻¹ | kon (cynomolgus monkey IL-6 [1]): 1.16e+06 M⁻¹ s⁻¹ | Ka [2]: 1.02e+10 M⁻¹ | Kd [2]: 97.7 pM | koff [2]: 0.000111 s⁻¹ | kon [2]: 1.13e+06 M⁻¹ s⁻¹ | Ka [3]: 1e+10 M⁻¹ | Kd [3]: 99.7 pM | koff [3]: 0.000127 s⁻¹ | kon [3]: 1.28e+06 M⁻¹ s⁻¹ | fold improvement KD (cynomolgus monkey IL-6 [4]): 12.5 fold | fold improvement ka (cynomolgus monkey IL-6 [4]): 10.3 fold | fold improvement kd (cynomolgus monkey IL-6 [4]): 1.21 fold | fold improvement KD [5]: 5.59 fold | fold improvement ka [5]: 6.04 fold | fold improvement kd [5]: 0.92 fold | fold improvement KD [6]: 5.26 fold | fold improvement ka [6]: 5.1 fold | fold improvement kd [6]: 1.03 fold
B3: Fab 55H1 (Fab, V domains shown)
VH: B1 VH
VL: B2 VL with L1A, S2Q, Y3S, D4V, L5V, I49L, N55S, Y90V, E98G, I100A
notes: VL-shuffled Fab of 29B11, periplasmic fraction; also called 55H1c

Ka (cynomolgus monkey IL-6 [1]): 1.39e+09 M⁻¹ | Kd (cynomolgus monkey IL-6 [1]): 717 pM | koff (cynomolgus monkey IL-6 [1]): 0.000336 s⁻¹ | kon (cynomolgus monkey IL-6 [1]): 468000 M⁻¹ s⁻¹ | Ka [2]: 6.34e+09 M⁻¹ | Kd [2]: 158 pM | koff [2]: 6.53e-05 s⁻¹ | kon [2]: 414000 M⁻¹ s⁻¹ | Ka [3]: 7.28e+09 M⁻¹ | Kd [3]: 137 pM | koff [3]: 6.72e-05 s⁻¹ | kon [3]: 489000 M⁻¹ s⁻¹ | fold improvement KD (cynomolgus monkey IL-6 [4]): 9.22 fold | fold improvement ka (cynomolgus monkey IL-6 [4]): 4.14 fold | fold improvement kd (cynomolgus monkey IL-6 [4]): 2.22 fold | fold improvement KD [5]: 3.46 fold | fold improvement ka [5]: 2.21 fold | fold improvement kd [5]: 1.56 fold | fold improvement KD [6]: 3.82 fold | fold improvement ka [6]: 1.95 fold | fold improvement kd [6]: 1.95 fold
B4: Fab 55E2 (Fab, V domains shown)
VH: B1 VH
VL: AQSVLTQPPSVSGSPGKTVTISCAGTSSDVGYGNYVSWYQQLPGMAPKLLIYDVNKRASGIADRFSGSKFANTASLTISGLQSEDEADYYCASYKRGDNAVFGGGTKLTVLG
notes: VL-shuffled Fab of 29B11, periplasmic fraction; also called 55E2b

B5: 111B1 (antibody, V domains shown)
VH: EVQLLESGGGLVQPGGSLRLSCAASGFTFSSYAMYWVRQPPGKGLEWVSRISAGGGSTYYGDSVKGRFTISRDNSKNTLYLQMNSLRAEDTAVYYCANRAGWGMGDYWGQGTLVTVSS
VL: QTVVTQEPSFSVSPGGTVTLTCGLSSGSVTASNYPGWFQQTPGQAPRALIYSTNDRHSGVPDRFSGSILGNKAALTITGAQAEDEADYYCALDIGDITEFGGGTQLTVL
IC50, growth of IL-6-dependent 7TD1 cells with 75 pg/ml human IL-6 (human IL-6): < 1 pM

B6: 104C1 (antibody, V domains shown)
VH: B5 VH with P40A, S75A, L79V, R87K, A88P, L113Q
VL: QTVVTQEPSFSVSPGGTVTLTCGLSSGSVTASNYPGWYQQTPGQAPRALIYSTNDRHSGVPDRFSGSISGNKAALTITGAQADDESDYYCALDIGDITEFGGGTKLTVLG
IC50, growth of IL-6-dependent 7TD1 cells with 75 pg/ml human IL-6 (human IL-6): < 1 pM

IC50, proliferation of IL-6-dependent B9 cells with 10 pg/ml human IL-6 (human IL-6): < 0.1 pM
B7: 129D3 antibody (antibody, V domains shown)
VH: EVQLQESGPGLVKPSQTLSLTCTVSGGSITSRYYAWSWIRQPPGKGLEWIGVIDYDGDTYYSPSLKSRVSISWDTSKNQFSLKLSSVTPADTAVYYCARDPDVVTGFHYDYWGQGTMVTVSS
VL: QSALTQPPSVSGTPGQSVTISCAGANNDIGTYAYVSWYQQLPGTAPKLMIYKVTTRASGIPDRFSGSKSGNTASLTISGLQAEDEADYYCASYRNFNNAVFGTGTKLTVL
IC50, growth of IL-6-dependent 7TD1 cells with 75 pg/ml human IL-6 (human IL-6): < 1 pM

B8: 133E5 (germlined variant of 68F2) (antibody, V domains shown)
VH: B7 VH with E1Q, S70T, A90E, M117Q
VL: B7 VL with T13S, S17T, T103R
IC 50, B9 cell proliferation [7]: 0.19 pM | Rel. potency, B9 cells [7]: 4.3 | IC50, 7TD1 cells [8]: 0.1 pM | Potency relative to 68F2, 7TD1 cells [8]: 6.69

B9: 68F2 (parental antibody), full-length IgG1 (antibody, V domains shown)
VH: B7 VH with S31T, I50M, V69T, K83Q, A90E, M117Q
VL: QSALTQPPLVSGTPGQTVTISCAGANNDIGTYAYVSWYQQLPGTAPKLLIYKVTTRASGIPSRFSGSKSGNTASLTISGLQSEDEADYYCASYRNFNNAVFGRGTHLTVLG
IC 50, B9 cell proliferation (batch 12.9) [7]: 0.98 pM | IC 50, B9 cell proliferation (batch A8.10) [7]: 0.62 pM | average IC50 of the two 68F2 batches, B9 cells [7]: 0.8 pM | IC50, 7TD1 proliferation assay, exp 7.07 (batch 24.06) [9]: 1.36 pM | IC50, 7TD1 proliferation assay, exp 7.07 (batch #12.9) [9]: 1.46 pM | IC50, 7TD1 proliferation assay, exp 22.06 (batch #12.9) [9]: 0.803 pM | IC50, 7TD1 proliferation assay, exp 29.06 (December batch) [9]: 0.645 pM | IC50, 7TD1 proliferation assay, exp 29.06 (Large batch) [9]: 1.31 pM | IC50, 7TD1 proliferation assay, exp 29.06 (batch 24.06) [9]: 0.56 pM | IC50, 7TD1 proliferation assay, exp 29.06 (batch #12.9) [9]: 0.521 pM | Rel. Potency, 7TD1, exp 29.06 (batch 24.06) [9]: 1 | IC50, 7TD1 cells (batch A8.10) [8]: 0.67 pM | Potency relative to 68F2, 7TD1 cells (batch A8.10) [8]: 1

B10: 133A9 (antibody, V domains shown)
VH: B7 VH with S31T, D56E, S70T, W73V, P89A, A90E
VL: B7 VL with S9L, T13S, S17T, L41P, K68I, A82S
IC50, growth of IL-6-dependent 7TD1 cells with 75 pg/ml human IL-6 (human IL-6): < 1 pM

B11: 132E7 (germlined variant of 68F2) (antibody, V domains shown)
VH: B7 VH with S70T, M117T
VL: B7 VL with A3V, S9R, T13A, S17T, M49L, I60V, T72S, S78T, T103G
IC 50, B9 cell proliferation [7]: 0.38 pM | Rel. potency, B9 cells [7]: 2.1 | IC50, 7TD1 cells [8]: 0.37 pM | Potency relative to 68F2, 7TD1 cells [8]: 1.85

B12: 133H2 (germlined variant of 68F2) (antibody, V domains shown)
VH: B7 VH with S31T, V69T, S70T, M117T
VL: B7 VL with S9L, T13S, S17T, L41P, T103S
IC 50, B9 cell proliferation [7]: 0.37 pM | Rel. potency, B9 cells [7]: 2.2 | IC50, 7TD1 cells (batch A1.8) [8]: 0.35 pM | IC50, 7TD1 cells (batch A9.11) [8]: 0.47 pM | Potency relative to 68F2, 7TD1 cells (batch A1.8) [8]: 1.94 | Potency relative to 68F2, 7TD1 cells (batch A9.11) [8]: 1.44

B13: 133H2 (antibody, V domains shown)
VH: B7 VH with S31T, V69T, S70T, M117T
VL: B7 VL with S9L, T13S, S17T, L41P, T103S
IC50, growth of IL-6-dependent 7TD1 cells with 75 pg/ml human IL-6 (human IL-6): < 1 pM

Reference: US20220073604A1 (ARGENX BVBA, published 2022)
